Assay results as given in US11090383 (CENTRE FOR DRUG RESEARCH AND DEVELOPMENT, dated 2021).
Blank lines part the entries; values can stand above or below the molecule they belong to.

Key:
[1] = biological target: WT Podocalyxin (on normal cells and tissues) (human) (UniProt O00592); test: flow cytometry, live HUVEC cells
[2] = biological target: WT Podocalyxin (on normal cells and tissues) (human) (UniProt O00592); test: flow cytometry, live 293 cells
cPodo/CHO = test: flow cytometry, live cPodo/CHO cells; Mock/CHO with this antibody: 2%
[3] = biological target: T1, human podocalyxin as displayed on tumor cells (A172, SKOV3, MIA PaCa-2, MDA-MB-231, OVCAR10) (human, UniProt O00592 23-558, post-translational glycan recognised by Podo447 (O-linked, with beta-GalNAc that may be terminal; site not stated)); test: flow cytometry, titrated antibody on A172 cells, four-parameter fit
T1 construct: Endogenous podocalyxin of tumor cell lines, on cells, in lysates or in cryosections; also called tumor-associated Podocalyxin
T1 chain: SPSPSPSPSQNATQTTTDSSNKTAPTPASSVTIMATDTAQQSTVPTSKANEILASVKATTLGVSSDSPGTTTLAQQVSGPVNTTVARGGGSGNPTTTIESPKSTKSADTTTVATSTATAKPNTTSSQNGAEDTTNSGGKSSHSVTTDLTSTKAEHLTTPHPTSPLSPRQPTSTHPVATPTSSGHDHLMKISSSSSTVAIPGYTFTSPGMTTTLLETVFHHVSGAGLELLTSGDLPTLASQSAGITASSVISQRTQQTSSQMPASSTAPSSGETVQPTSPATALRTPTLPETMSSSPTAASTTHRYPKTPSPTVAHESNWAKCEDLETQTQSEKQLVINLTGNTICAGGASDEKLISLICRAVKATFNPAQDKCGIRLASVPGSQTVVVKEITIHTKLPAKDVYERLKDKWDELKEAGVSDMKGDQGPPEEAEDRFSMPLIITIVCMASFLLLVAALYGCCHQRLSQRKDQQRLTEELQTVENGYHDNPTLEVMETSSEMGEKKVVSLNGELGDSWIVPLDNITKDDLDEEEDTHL
Procedure: (§1) Briefly, A172 cells were detached using cell dissociation solution (Sigma-C5914) and incubated with titrated purified antibodies in 96-well V-bottom plates. Antibody binding was detected using a goat anti-human IgG-Fc-Alexa 647 secondary antibody (Jackson 109-605-098) and the cells were analyzed on the Intellicyt high throughput flow cytometer (HTFC).
Table immediately above: Statistical data using Graphpad Prism analysis software representing the data presented above. Values were calculated using a variable slope (four parameters) non-linear regression analysis.

[4] = biological target: T1, human podocalyxin as displayed on tumor …; test: KinExA, titrated A172 cells with constant antibody, free antibody measured
Procedure: Example 13—Determination of Affinity of PODO447 and PODO83 for Cellular PODXL Antigens by Kinetic Exclusion Assay The concentration dependence of free anti-podo antibody as a function of A172 cell number was determined using a Sapidyne KinExA 3200. […] A172 cells and cell bound antibodies were then isolated by centrifugation. Supernatant containing free, unbound antibody was then transferred to a new tube. In the KinExA, a new column of PMMA beads coated with a Gt anti-IgG-Fc capture antibody is packed for each sample assayed. The supernatant containing free unbound antibody is passed over the column. The amount of free antibody captured on the PMMA beads was then measured using a Gt anti-IgG-Fc-A647. The concentration of free antibody over the entire 12 step dilution series was then used to determine the antibody Kd's using the standard Kd template in the KineExA Pro Software.
Table immediately above: Kinetic exclusion assay (KinExA) affinity determination of humanized and rabbit/human chimeric antibodies to Podocalyxin endogenously expressed on A172 cells. A172 cells were titrated and incubated with constant antibody concentrations and allowed to reach equilibrium with a 16 hour incubation. Free, unbound antibody in the supernatant was then captured on the KinExA 3200 using poly(methyl methacrylate) (PMMA) beads coated with goat anti-human IgG-Fc capture antibodies and detected with goat anti-human IgG-Fc-alexa 647 label.

[5] = biological target: WT Podocalyxin (on normal cells and tissues) (human) (UniProt O00592); test: IHC, Normal Cerebellum; Weak and Strong columns hold '-'
[6] = biological target: WT Podocalyxin (on normal cells and tissues) (human) (UniProt O00592); test: IHC, Normal Kidney
[7] = biological target: T1, human podocalyxin as displayed on tumor …; test: flow cytometry titration on A172 cells, goat anti-human IgG-Fc-Alexa 647
Procedure: as §1

[8] = biological target: T1, human podocalyxin as displayed on tumor …; test: flow cytometry, MIA PaCa-2 PODXL siRNA
Procedure: (§2) Cells were cultured under continuous antibiotic selection with puromycin (4 µg/ml; Invitrogen, Burlington, ON) and G418 (lmg/ml; Calbiochem, Darmstadt, Germany). shRNA constructs were generously provided by Dr. John Wilkins (University of Manitoba, Winnipeg, MB) and the infections were performed by Michelle Turvey and Dr. Shaun McColl (University of Adelaide, Australia). 2.5×10^5 MIA PaCa-2 cells were seeded per well in a 6-well TC-Treated plate (Costar, cat#3516). After incubation overnight, cells were transfected with 10 nM siRNA following the guidelines of the Oligofectamine protocol (cat#12252-011, Invitrogen, Burlington, ON). Pre-Design and validated siRNA (PODXL siRNA, cat# s10770; Negative control No. 1 siRNA, cat#4390843) were obtained from Ambion (Thermo Fisher Scientific, Burlington, ON). Knock-downs were assessed by flow cytometry two days after transfection.
(§3) Sub-confluent cell lines were washed once with Ca^2+ and Mg^2+ free HBSS (Invitrogen, Carlsbad, Calif.) harvested with 0.25% Trypsin/EDTA (Invitrogen, Carlsbad, Calif.). Cells were quenched with normal growth media and centrifuged at 300×g for 5 minutes. Cells were washed once with FACS buffer (2% FBS, 2 mM EDTA, PBS, 0.05% NaAzide). Cells were blocked for 20 minutes at 4° C. in Blocking Buffer (2% rat serum, 2 µg/ml dilution of 2.4G2 (anti-CD16/CD32)) in a 96 well 'v' bottom plate. […]

[9] = biological target: T1, human podocalyxin as displayed on tumor …; test: flow cytometry, MDA.MB.231 Podo KD
Procedure: as §2, §3

[10] = biological target: T1, human podocalyxin as displayed on tumor …; test: KinExA kinetic exclusion assay, antigen: MDA-MB-231 Cells

Molecule: MsIgG2a (antibody)
Live cell GeoMean FL [1]: 484 | Live cell GeoMean FL [2]: 556 | % Shifting (FL4) Live Cells (cPodo/CHO): 1%

B2: Humanized Podo447 (humanized_podo447VH_hIgG1C with humanized_podo447VL6_hIgkC) (antibody, V domains shown)
VH: EVQLVESGGGLVQPGRSLRLSCTASGFSLSGYQMNWVRQAPGKGLEWVGYIWSDGGTDYTASVKGRFTISRDGSKSIAYLQMNSLKTEDTAVYYCAREGYWLGAFDPWGQGTSVTVSA
VL: AAQLTQSPSPLSASVGDRVTITCQSSQSVHHKNDLAWYQQKPGKAPKLLIYYTSTLASGVPSRFSGSGSGTDFTLTISSLQPEDFATYYCAGVYEGSSDNRAFGGGTKVEIKR
notes: The labels R0943_A046 and CDRD-0103-001 are tied to this molecule only by the word 'Humanized'; also called R0943_A046 (Humanized); CDRD-0103-001 (Humanized)
LogIC50 [3]: 2.09 | Kd [4]: 0.0144 nM | Kd High [4]: 0.0459 nM | Kd Low [4]: 0.00459 nM | EC50 (read off the curve) [7]: ~0.1 mg/L

Other lines, results leading:

Live cell GeoMean FL [1]: 489 | Live cell GeoMean FL [2]: 446
Molecule: Control Rb/HuIgG1 (antibody)

LogIC50 [3]: 2.28 | Kd [4]: 0.00757 nM | Kd High [4]: 0.0249 nM | Kd Low [4]: 0.0023 nM | IHC score Negative, cases of total [5]: 0 of 10 cases | IHC score Negative, cases of total [6]: 98% | IHC score Weak, cases of total [6]: 1.9% | EC50 (read off the curve) [7]: ~0.2 mg/L | decrease of binding on podocalyxin knockdown (fold) [8]: 10 X | Live cell GeoMean FL [1]: 3970 | decrease of binding on podocalyxin knockdown (fold) [9]: 2.5 X | Live cell GeoMean FL [2]: 6710 | Kd [10]: 0.189 nM | Kd High [10]: 52.4 nM | Kd Low [10]: 0.0425 nM
B1: Podo447 antibody, recombinant rabbit/human IgG1 chimera (antibody, V domains shown)
VH: QSLEESGGRLVTPGTPLTLTCTASGFSLSGYQMNWVRQAPGKGLEWIGYIWSDGGTDYASWAKGRFTISKTSSTTVDLKMTSLTTEDTATYFCAREGYWLGAFDPWGPGTLVTVSS
VL: AAVLTQTPSPVSAAVGATVSVSCQSSQSVHHKNDLAWFQQKPGQPPKLLIYYTSTLASGVPSRFKGSGSGTQFTLTISDLECDDAATYYCAGVYEGSSDNRAFGGGTEVVVKR
notes: also called anti-Podo
